Assays:
[1] = target: T1, recombinant HLA-A*03:01 (human); assay: differential scanning fluorimetry of peptide/HLA-A*03:01, two technical replicates
T1 construct: MHC class I molecule used in differential scanning fluorimetry and crystallography. 'Recombinant' is printed only for the crystal structures; also called HLA-A*03:01 molecule
Source text: Experiments included two technical replicates for each group. […] It measured the change in fluorescent signal of a dye that binds preferentially to hydrophobic resides that are exposed as an unstable protein unfolds.

[2] = target: P8 peptide … pulsed on HLA-A*03:01 cells (human, UniProt A*03:01); assay: cell-based or functional assay
[3] = target: P9 peptide … pulsed on HLA-A*03:01 cells (human, UniProt A*03:01); assay: cell-based or functional assay
[4] = target: P6 peptide … pulsed on HLA-A*03:01 cells (human, UniProt A*03:01); assay: cell-based or functional assay
[5] = target: P5 peptide … pulsed on HLA-A*03:01 cells (human, UniProt A*03:01); assay: cell-based or functional assay
[6] = target: P3 peptide … pulsed on HLA-A*03:01 cells (human, UniProt A*03:01); assay: cell-based or functional assay
[7] = target: P4 peptide … pulsed on HLA-A*03:01 cells (human, UniProt A*03:01); assay: cell-based or functional assay
[8] = target: P7 peptide … pulsed on HLA-A*03:01 cells (human, UniProt A*03:01); assay: cell-based or functional assay
[9] = target: P2 peptide … pulsed on HLA-A*03:01 cells (human, UniProt A*03:01); assay: cell-based or functional assay

loss in function against the unmodified mutated 9-mer [2] | loss in function against the unmodified mutated 9-mer [3] | loss in function against the unmodified mutated 9-mer [4] | loss in function against the unmodified mutated 9-mer [5] | loss in function against the unmodified mutated 9-mer [6] | loss in function against the unmodified mutated 9-mer [7] | loss in function against the unmodified mutated 9-mer [8] | loss in function against the unmodified mutated 9-mer [9] | Binder | melting temperature [1]
– | – | – | – | – | – | – | – | AHHGGWTTK (also called WT peptide) [wildtype PIK3CA minimal peptide AHHGGWTTK] | 36 degrees
> 50 % loss in function | > 50 % loss in function | > 50 % loss in function | > 50 % loss in function | > 50 % loss in function | > 50 % loss in function | > 50 % loss in function | > 50 % loss in function | 1022T8 TCR (TCR, V domains shown) V domain 1: GDSVTQMEGPVTLSEEAFLTINCTYTATGYPSLFWYVQYPGEGLQLLLKATKADDKGSNKGFEATYRKETTSFHLEKGSVQVSDSAVYFCALTVGGSYIPTFGRGTSLIVHP V domain 2: DTEVTQTPKHLVMGMTNKKSLKCEQHMGHRAMYWYKQKAKKPPELMFVYSYEKLSINESVPSRFSPECPNSSLLNLHLHALQPEDSALYLCASSQGGQGWRETQYFGPGTRLLVLE | –

Source: patent US20260139026A1 (Memorial Sloan Kettering, published 2026)
